Laboratory results: US20230127123A1 (Dana-Farber, published 2023)

Tests used:
[1] = biological target: PD-L1 (antigen of the kinetic measurements) (human, UniProt Q9NZQ7); experiment: kinetic measurements for aPDL1 antibodies; instrument and antigen format not stated
[2] = biological target: T1, PD-L1 (on 293T cells stably expressing PD-L1) (human, UniProt Q9NZQ7); experiment: flow cytometry on 293T cells stably expressing PD-L1, percent of cells labelled, anti-hFc secondary
T1 construct: expressed on the surface of stably transfected 293T cells; also called CD274; B7-H1
T1 sequence (Q9NZQ7 19-290 limits assumed): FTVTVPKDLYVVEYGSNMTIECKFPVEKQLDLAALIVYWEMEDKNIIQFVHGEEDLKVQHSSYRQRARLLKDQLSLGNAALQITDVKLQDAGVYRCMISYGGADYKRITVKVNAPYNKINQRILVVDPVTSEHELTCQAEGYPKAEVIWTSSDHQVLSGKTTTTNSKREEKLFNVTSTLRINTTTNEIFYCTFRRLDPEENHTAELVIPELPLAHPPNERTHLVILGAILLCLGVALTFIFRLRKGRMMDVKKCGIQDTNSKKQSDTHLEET

Sequence of PD-L1 (antigen of the kinetic measurements) (Q9NZQ7 19-238 limits assumed): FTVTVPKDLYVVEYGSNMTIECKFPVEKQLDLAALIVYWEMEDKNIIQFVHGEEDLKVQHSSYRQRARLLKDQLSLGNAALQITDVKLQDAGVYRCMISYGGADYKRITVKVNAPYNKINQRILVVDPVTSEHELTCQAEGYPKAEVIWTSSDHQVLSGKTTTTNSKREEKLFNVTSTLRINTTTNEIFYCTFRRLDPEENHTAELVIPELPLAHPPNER

Binder | Kd [1] | koff [1] | kon [1] | EC50 (read off the curve) [2]
1C1 (antibody, V domains shown, anti-PD-L1 clone; also called Ab 1C1) VH: QVQLVQSGAEVKKPGASVKVSCKASGYTFTSYGISWVRQAPGQGLEWMGWTSPHNGLTAFAQILEGRVTMTTDTSTNTAYMELRNLTFDDTAVYFCAKVHPVFSYALDVWGQGTLVTVSS VL: NFMLTQPHSVSESPGKTVTISCTRSSGSIASNYVQWYQQRPGSSPTTVIYEDNQRPSGVPDRFSGSIDTSSNSASLTISGLKTKDEADYYCQSYDGITVIFGGGTKLTVL | 1.23 nM | 0.000987 s⁻¹ | 802000 M⁻¹ s⁻¹ | –
1A6 (antibody, V domains shown, anti-PD-L1 clone; also called Ab 1A6) VH: QVQLVQSGGEVKKPGASVKVSCKASGYTLSSHGITWVRQAPGQGLEWMGWISAHNGHASNAQKVEDRVTMTTDTSTNTAYMELRSLTADDTAVYYCARVHAALYYGMDVWGQGTLVTVSS VL: QSVLTQPPSVSVAPGQTARITCGGNNIGSKGVHWYQQKPGQAPVLVVYDDSDRPSGIPERFSGSNSGNTATLTISRVEAGDEADYYCQVWDSSSDHWVFGGGTKLTVL | 913 nM | 0.0113 s⁻¹ | 12400 M⁻¹ s⁻¹ | –
1D1 (antibody, V domains shown, anti-PD-L1 clone; also called Ab 1D1) VH: QVQLVQSGAEVKKPGASVKVSCKASGYTFTSYGISWVRQAPGQGLEWMGWISAYNGHASNAQKVEDRVTMTTDTSTNTAYMELRNLTTDDTAVYYCARVHAALYYGMDVWGQGTTVTVSS VL: SYELTQPPSVSVAPGQTARITCGGDNIGSKGVHWYQQTPGQAPVLVVYDDSDRPSGIPERFSGSKSGNTATLTISRVEAGDEADYYCQVWDSRSDHWVFGGGTRVTVL | 0.609 nM | 0.000745 s⁻¹ | 1.22e+06 M⁻¹ s⁻¹ | –
1C6 (antibody, V domains shown, anti-PD-L1 clone; also called Ab 1C6) VH: QVQLVQSGGEVKKPGASVKVSCKASGYTLSSHGITWVRQAPGQGLEWMGWISAHNGHASNAQKVEDRVTMTTDTSTNTAYMELRSLTPDDTAVYYCARVHAALYYGMDVWGQGTLVTVSS VL: LPVLTQPPSVSVAPGQTARITCGGNNIGSKSVHWYQQKPGQAPVLVVYDDSDRPSGIPERFSGSNSGNTATLTINRVEAGDEADYYCQVWDSSSDHWVFGGGTKLTVL | 41.6 nM | 0.01 s⁻¹ | 241000 M⁻¹ s⁻¹ | –
1A2 (antibody, V domains shown, anti-PD-L1 clone; also called Ab 1A2) VH: QVQLVQSGGEVKKPGASVKVSCKASGYTLSSHGITWVRQAPGQGLEWMGWISAHNGHASNAQKVEDRVTMTTDTSTNTAYMELRSLTADDTAVYYCARVHAALYYGMDVWGQGTTVTVSS VL: QSVLTQPPSVSVAPGQTARITCGGNNIGSKGVHWYQQKPGQAPVLVVYDDSDRPSGIPERFSGSNSGNTATLTISRVEAGDEADYYCQVWDSSSDHWVFGGGTKLTVL | 0.679 nM | – | – | –
1A3 (antibody, V domains shown, anti-PD-L1 clone; also called Ab 1A3) VH: EVQLVQSGAEVKKPGASVKVSCKASGYTLSSHGITWVRQAPGQGLEWMGWISAHNGHASNAQKVEDRVTMTTDTSTNTAYMELRSLTPDDTAVYYCARVHAALYYGMDVWGQGTLVTVSS VL: LPVLTQPPSVSVAPGQTARITCGGNNIGSKSVHWYQQKPGQAPVLVVYDDSDRPSGIPERFSGSNSGNTATLTISRVEAGDEADYYCQVWDSSSDHWVFGGGTKLTVL | 873 nM | 0.0115 s⁻¹ | 13100 M⁻¹ s⁻¹ | –
1D2 (antibody, V domains shown, anti-PD-L1 clone; also called Ab 1D2) VH: QVQLVQSGAEVKKPGSSVKVSCKASGGTFSSYAISWVRQAPGQGLEWMGGIIPIFGTANYAQKFQGRVTITADESTSTAYMELSSLRSEDTAVYYCARDGSGYDSAGMDDWGQGTLVTVSS VL: QPGLTQPPSASGTPGQTVTISCSGSRSNIGSNYVYWYQQFPGTAPKLLIFSNNQRPSGVPDRFSGSKSGTSASLAISGLRSEDEADYYCAVWDDSLSGVVFGGGTKLTVL | 0.989 nM | 0.00133 s⁻¹ | 1.35e+06 M⁻¹ s⁻¹ | ~0.1 nM
1C4 (antibody, V domains shown, anti-PD-L1 clone; also called Ab 1C4) VH: QVQLVQSGAEVKKPGSSVKVSCKASGGTFSRYALTWVRQAPGQGLEWMGGIIPIFGRANYAQKFQGRVTITADKSTSTAYMELGSLTSDDTAVYYCAEEGAFNSLAIWGQGTMVTVSS VL: NFMLTQPHSVSESPGKTVTISCTRSSGSIASNYVQWYQQRPGSAPTTVIFADNQRPSGVPARFSGSIDSSSNSASLTISGLKTEDEADYYCQSYDSSNHWVFGGGTQLTVL | 1.16 nM | – | – | –
1B4 (antibody, V domains shown, anti-PD-L1 clone; also called Ab 1B4) VH: QVQLVQSGGGLVKPGGSLRLSCVGSDFAFSSAWMNWVRQAPGKGLEWVGRIKSKTDGETTDYAAPVKDRFIISRDDSKNTLYLEMNSLKTEDTGVYYCTTGGLGLVYPYYNYIDVWGEGTTVTVSS VL: LPVLTQPPSASGTPGQRVTISCSGSSSNIGSNYVYWYQQLPGTAPKLLIYRNNQRPSGVPDRFSGSKSGTSASLAISGLRSEDEADYYCAAWDDSLNGLVFGTGTRVTVL | 0.669 nM | 0.00124 s⁻¹ | 1.85e+06 M⁻¹ s⁻¹ | –
1D4 (antibody, V domains shown, anti-PD-L1 clone; also called Ab 1D4) VH: QVQLVQSGGGVVQPGRSLRLSCAASGFTFSSYAIHWVRQAPGKGLEWITTISYDGSNKYYADSVKGRFTISRDNPKNTLYLQMNSLRAEDTAVYYCARGFGGPDYWGQGTLVTVSS VL: LPVLTQPSSLSASPGASASLTCTLRSGINVGTYRIYWYQQKPGSPPQYLLRYKSDSDKQQGSGVPSRFSGSKDASANAGILLISGLQSEDEADYYCMIWHSSAYVFGTGTKVTVL | 1.03 nM | – | – | 0.2 to 0.3 nM

Now from value to binder:

Kd [1] | koff [1] | kon [1] | EC50 (read off the curve) [2] | Binder
1.57 nM | – | – | – | 1H2 (antibody, V domains shown, anti-PD-L1 clone; also called Ab 1H2) VH: QVQLVQSGGGLVKPGGSLRLSCAASGFTFSSYSMNWVRQAPGKGLVWISRIISDGSATTYADSVKGRFTISRDNAKNTLYLQMNSLRAEDTGVYYCARDRSEGGFDPWGQGTLVTVSS VL: SSELTQDPAVSVALGQTVRITCQGDSLRSYYASWYQQKPGQAPVLVIYGKNNRPSGIPDRFSGSTSGNTASLTITGAQAEDEADYYCNSRDISDNQWQWIFGGGTKLAVL
0.878 nM | – | – | ~0.05 nM | 1G1 (antibody, V domains shown, anti-PD-L1 clone; also called Ab 1G1) VH: EVQLVQSGAEVKKPGSSVRVSCKASGGTFSSYAISWVRQAPGQGLEWMGRIIPILGIANYAQKFQGRVTITADKSTSTAYMELSSLRSEDTAVYYCASGSIVGAAYAFDIWGQGTTVTVSS VL: QSVLTQPPSVSVAPGKAANLNCGGKNIGGRVVHWYQQRPGQAPVLVIYDDTDRPSGIPERFSGSNSGNTATLTITDVEVGDEADYYCQVWDSRSDHPVFGGGTTLTVL
1.91 nM | – | – | – | 14C61 (antibody, V domains shown, anti-PD-L1 clone; also called Ab 14C61) VH: EVQLVQSGGEVKKPGASVKVSCKASGYTLSSHGITWVRQAPGQGLEWMGWISAHNGHASNAQKVEDRVTMTTDTSTNTAYMELRSLTPDDTAVYYCARVHAALYYGMDVWGQGTLVTVSS VL: SYELTQPPSVSVAPRQTAKITCTRDNIESRSVNWYQQRAGQAPAVIVYDDTERPSGITVRYSGSNSGNTATLTISRVEAGDEADYYCQVWDSSGDLWVFGGGTKLTVL
8.98 nM | 0.00884 s⁻¹ | 984000 M⁻¹ s⁻¹ | – | 1E1. (antibody, V domains shown, anti-PD-L1 clone; also called Ab 1E1) VH: QVQLVQSGVEMKKPGASVRVSCKGSGYTFSSYGISWVRQAPGQGLEWMGWISAHNGHASNAQKLEDRVTMTTDTSTNTAYMELRSLTSDDTAVYYCARVHGALYYGMDVWGQGTTVTVSS VL: SYELTQPPSVSVAPGQTARIPCGANNIGGKSVHWYQQKPGQAPVLVVYDDRDRPSGIPERFSGSNSGNTATLTISRVEAGDEADYYCQVWDSSSDHWVFGGGTKLTVL
0.461 nM | 0.000338 s⁻¹ | 733000 M⁻¹ s⁻¹ | – | 1F1 (antibody, V domains shown, anti-PD-L1 clone; also called Ab 1F1) VH: QVQLVQSGGEVKKPGASVKVSCKASGYTLSSHGITWVRQAPGQGLEWMGWISAHNGHASNAQKVEDRVTMTTDTSTNTAYMELRSLTPDDTAVYYCARVHAALYYGMDVWGQGTLVTVSS VL: QPVLTQPPSVSVAPGQTARITCGGDNIGSKGVHWLQQKPGQAPVLVVYDDRDRPSGIPERFSGSNSGSTATLTISRVEAGDEADYYCQVWDSSSDHWVFGGGTKLTVL
0.287 nM | 0.000367 s⁻¹ | 1.28e+06 M⁻¹ s⁻¹ | – | 1H5 (antibody, V domains shown, anti-PD-L1 clone; also called Ab 1H5) VH: QVQLVQSGAEVKKPGSSVKVSCKASGGTFSRYALTWVRQAPGQGLEWMGGIIPIFGRANYAQKFQGRVTITADKSTSTAYMELGSLTSDDTAVYYCAEEGAFNSLAIWGQGTMVTVSS VL: NFMLTQPHSVSGSPGETVTISCTRSSGSIASHFVQWYQQRPGSSPTTVIFGDDQRPSGVPDRISGSIDTSSNSASLSISGLKTEDEADYYCQSYDSSNHVVFGGGTKLTVL
